Where a chain is given by its changes, count along the chain named. Each block holds one binder with its values, some of them ahead of it.
How the values were obtained:
[1] = target: NRP1 expressed on the surface of cancer cells (NRP1-overexpressing patient-derived cells; U87MG glioblastoma cell line) (human) (UniProt O14786); experiment: cell-based or functional assay
[2] = target: human NRP1 protein (human) (UniProt O14786); experiment: SPR, Biacore T100
human NRP1 protein (human), sequence (O14786 other isoform, or with tags, fused parts or gaps limits assumed): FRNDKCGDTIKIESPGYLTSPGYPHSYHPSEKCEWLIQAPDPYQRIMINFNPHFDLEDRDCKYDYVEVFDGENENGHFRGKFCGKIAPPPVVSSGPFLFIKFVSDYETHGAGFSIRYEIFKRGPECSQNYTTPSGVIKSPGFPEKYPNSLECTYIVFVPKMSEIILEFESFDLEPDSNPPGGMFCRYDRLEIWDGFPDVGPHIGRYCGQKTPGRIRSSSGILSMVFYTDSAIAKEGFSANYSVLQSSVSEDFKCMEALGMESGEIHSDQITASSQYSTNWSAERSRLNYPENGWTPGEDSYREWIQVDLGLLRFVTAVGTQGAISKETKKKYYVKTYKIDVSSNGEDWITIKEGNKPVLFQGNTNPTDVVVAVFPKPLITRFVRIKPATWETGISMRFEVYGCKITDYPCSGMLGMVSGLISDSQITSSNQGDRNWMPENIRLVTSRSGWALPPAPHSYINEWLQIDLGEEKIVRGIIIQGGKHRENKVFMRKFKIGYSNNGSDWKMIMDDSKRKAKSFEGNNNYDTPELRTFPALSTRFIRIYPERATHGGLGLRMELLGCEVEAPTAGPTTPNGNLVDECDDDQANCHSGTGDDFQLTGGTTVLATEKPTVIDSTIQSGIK

NRP1 expressed on the surface of cancer cells (NRP1-overexpressing patient-derived cells; U87MG glioblastoma cell line) (human), sequence (O14786 22-923): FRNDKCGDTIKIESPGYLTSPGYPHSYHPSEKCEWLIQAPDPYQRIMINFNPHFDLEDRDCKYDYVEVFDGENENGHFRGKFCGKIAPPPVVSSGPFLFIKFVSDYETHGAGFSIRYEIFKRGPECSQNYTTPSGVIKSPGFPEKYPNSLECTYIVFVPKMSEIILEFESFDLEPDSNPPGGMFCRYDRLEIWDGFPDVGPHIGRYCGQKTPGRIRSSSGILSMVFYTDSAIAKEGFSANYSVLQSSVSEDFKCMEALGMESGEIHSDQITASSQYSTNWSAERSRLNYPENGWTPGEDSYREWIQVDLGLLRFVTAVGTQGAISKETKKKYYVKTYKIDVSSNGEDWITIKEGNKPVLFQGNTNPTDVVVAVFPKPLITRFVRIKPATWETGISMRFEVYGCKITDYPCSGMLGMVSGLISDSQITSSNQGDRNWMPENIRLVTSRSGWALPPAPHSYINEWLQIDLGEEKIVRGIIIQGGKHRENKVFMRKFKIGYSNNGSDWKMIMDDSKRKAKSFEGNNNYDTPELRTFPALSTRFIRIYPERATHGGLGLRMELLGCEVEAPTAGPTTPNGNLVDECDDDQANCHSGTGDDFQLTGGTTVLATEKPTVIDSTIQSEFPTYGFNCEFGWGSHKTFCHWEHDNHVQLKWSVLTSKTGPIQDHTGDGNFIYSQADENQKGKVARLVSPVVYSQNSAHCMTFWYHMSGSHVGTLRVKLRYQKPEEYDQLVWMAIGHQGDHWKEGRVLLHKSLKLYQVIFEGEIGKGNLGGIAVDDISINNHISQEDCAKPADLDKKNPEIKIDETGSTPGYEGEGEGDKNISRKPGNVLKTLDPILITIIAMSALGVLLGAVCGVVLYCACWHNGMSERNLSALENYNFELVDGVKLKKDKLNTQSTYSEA

- cell migration of U87MG cells (transwell), untreated control = 100% [1]: 41%
- Kd [2]: 89.4 nM
B1: 1A03 scFv antibody fragment (scFv, part only; not given: linker, domain order, His and HA tags, V domains shown, not shown: another chain or arm of the molecule; large carriers; small tags and cut ends)
VH: EVQLLESGGGLVQPGGSLRLSCAASGFTFSSYYMSWVRQAPGKGLEWVSAISPGSSNKYYADSVQGRFTISRDNSKNTLYLQMNSLRAEDTAVYYCARRKKSFDYWGQGTLVTVSS
VL: QSVLTQPPSASGTPGQRVTISCSGPSSNIGNNDVSWYQQLPGTAPKLLIYSDNNRPSGVPDRFSGSKSGTSASLAISGLRSEDEADYYCGAWVASLSAYVFGGGTKLTVL

- cell migration of U87MG cells (transwell), untreated control = 100% [1]: 46%
- Kd [2]: 295 nM
B2: 3H10 scFv antibody fragment (scFv, part only; not given: linker, domain order, His and HA tags, V domains shown, not shown: another chain or arm of the molecule; large carriers; small tags and cut ends)
VH: B1 VH with Q65K, K101Y, S102M
VL: B1 VL with S23T, P25S, S35Y, N53S, G90A, A91S, V93D, A94S, A98G
